Source: patent US20180362585A1 (Bicycle, published 2018)
Numbered stars: 1 amine (or outer) side, 2 acyl side, 3 side chain; on linkers, the order of the positions; unused ones are H or OH. Bridge positions count the residues as written; N and C are the ends. Ends that are not written are not given here. TBMB = c1c(C[*:1])cc(C[*:3])cc1C[*:2]

B1: CSFPWRCTHQDLC (peptide)
peptide: CSFPWRCTHQDLC
modifications: linker 1-7-13 via TBMB (inferred)
notes: on phage
B2: CSFPYRCTHQDLC (peptide)
peptide: CSFPYRCTHQDLC
modifications: linker 1-7-13 via TBMB (inferred)
notes: on phage
B3: CSFPFKCTHQDLC (peptide)
peptide: CSFPFKCTHQDLC
modifications: linker 1-7-13 via TBMB (inferred)
notes: on phage
B4: CSFLYKCTHQDLC (peptide)
peptide: CSFLYKCTHQDLC
modifications: linker 1-7-13 via TBMB (inferred)
notes: on phage
B5: CSFPYKCTHQDLC (peptide)
peptide: CSFPYKCTHQDLC
modifications: linker 1-7-13 via TBMB (inferred)
notes: on phage
B6: CSFPIRCTHQDLC (peptide)
peptide: CSFPIRCTHQDLC
modifications: linker 1-7-13 via TBMB (inferred)
notes: on phage
B7: CRFPFKCTHQDLC (peptide)
peptide: CRFPFKCTHQDLC
modifications: linker 1-7-13 via TBMB (inferred)
notes: on phage
B8: CSFMYKCTHQDLC (peptide)
peptide: CSFMYKCTHQDLC
modifications: linker 1-7-13 via TBMB (inferred)
notes: on phage
B9: CSFPFWCTHQDLC (peptide)
peptide: CSFPFWCTHQDLC
modifications: linker 1-7-13 via TBMB (inferred)
notes: on phage
B10: CAWPARCMHDDLC (peptide)
peptide: CAWPARCMHDDLC
modifications: linker 1-7-13 via TBMB
notes: on phage
B11: CSWPARCTHTELC (peptide)
peptide: CSWPARCTHTELC
modifications: linker 1-7-13 via TBMB
notes: on phage
B12: CSWPARCLHTELC (peptide)
peptide: CSWPARCLHTELC
modifications: linker 1-7-13 via TBMB
notes: on phage
B13: CSWPARCVHQDMC (peptide)
peptide: CSWPARCVHQDMC
modifications: linker 1-7-13 via TBMB
notes: on phage
B14: CAWPARCLHADMC (peptide)
peptide: CAWPARCLHADMC
modifications: linker 1-7-13 via TBMB
notes: on phage
B15: CAWPARCTHQTMC (peptide)
peptide: CAWPARCTHQTMC
modifications: linker 1-7-13 via TBMB
notes: on phage
B16: CTWPARCLHQHMC (peptide)
peptide: CTWPARCLHQHMC
modifications: linker 1-7-13 via TBMB
notes: on phage
B17: CTWPARCTHQAFC (peptide)
peptide: CTWPARCTHQAFC
modifications: linker 1-7-13 via TBMB
notes: on phage
B18: CQWPARCMHQELC (peptide)
peptide: CQWPARCMHQELC
modifications: linker 1-7-13 via TBMB (inferred)
notes: on phage
B19: CAWPARCTHADLC (peptide)
peptide: CAWPARCTHADLC
modifications: linker 1-7-13 via TBMB
notes: on phage
B20: CMWPARCMHQDLC (peptide)
peptide: CMWPARCMHQDLC
modifications: linker 1-7-13 via TBMB (inferred)
notes: on phage
B21: CRWPARCTHQDLC (peptide)
peptide: CRWPARCTHQDLC
modifications: linker 1-7-13 via TBMB (inferred)
notes: on phage
B22: CLWPARCTHQDLC (peptide)
peptide: CLWPARCTHQDLC
modifications: linker 1-7-13 via TBMB
notes: on phage
B23: CAWPARCTHTDLC (peptide)
peptide: CAWPARCTHTDLC
modifications: linker 1-7-13 via TBMB
notes: on phage
B24: CSWPARCTHSHLC (peptide)
peptide: CSWPARCTHSHLC
modifications: linker 1-7-13 via TBMB
notes: on phage
B25: CHWPARCTHQDLC (peptide)
peptide: CHWPARCTHQDLC
modifications: linker 1-7-13 via TBMB
notes: on phage
B26: CAWPARCTHVDLC (peptide)
peptide: CAWPARCTHVDLC
modifications: linker 1-7-13 via TBMB
notes: on phage
B27: CTWPARCTHADLC (peptide)
peptide: CTWPARCTHADLC
modifications: linker 1-7-13 via TBMB
notes: on phage
B28: CAWPARCTHTDFC (peptide)
peptide: CAWPARCTHTDFC
modifications: linker 1-7-13 via TBMB
notes: on phage
B29: CHWPARCMHQDLC (peptide)
peptide: CHWPARCMHQDLC
modifications: linker 1-7-13 via TBMB
notes: on phage
B30: CHWPARCTHQELC (peptide)
peptide: CHWPARCTHQELC
modifications: linker 1-7-13 via TBMB
notes: on phage
B31: CLWPARCTHADLC (peptide)
peptide: CLWPARCTHADLC
modifications: linker 1-7-13 via TBMB
notes: on phage
B32: CPWPARCTHTDLC (peptide)
peptide: CPWPARCTHTDLC
modifications: linker 1-7-13 via TBMB (inferred)
notes: on phage
B33: CPWPARCTHQNLC (peptide)
peptide: CPWPARCTHQNLC
modifications: linker 1-7-13 via TBMB (inferred)
notes: on phage
B34: CAWPARCTHYDLC (peptide)
peptide: CAWPARCTHYDLC
modifications: linker 1-7-13 via TBMB
notes: on phage
B35: CRWPARCTHTDLC (peptide)
peptide: CRWPARCTHTDLC
modifications: linker 1-7-13 via TBMB (inferred)
notes: on phage
B36: CTWPARCTHTDLC (peptide)
peptide: CTWPARCTHTDLC
modifications: linker 1-7-13 via TBMB
notes: on phage
B37: CSWPARCTHSDLC (peptide)
peptide: CSWPARCTHSDLC
modifications: linker 1-7-13 via TBMB
notes: on phage
B38: CTWPARCTHTDMC (peptide)
peptide: CTWPARCTHTDMC
modifications: linker 1-7-13 via TBMB
notes: on phage
B39: CPWPARCLHTDLC (peptide)
peptide: CPWPARCLHTDLC
modifications: linker 1-7-13 via TBMB (inferred)
notes: on phage
B40: CAWPARCTHTHLC (peptide)
peptide: CAWPARCTHTHLC
modifications: linker 1-7-13 via TBMB
notes: on phage
B41: CQWPARCTHSDLC (peptide)
peptide: CQWPARCTHSDLC
modifications: linker 1-7-13 via TBMB (inferred)
notes: on phage
B42: CPWPARCTHQDLC (peptide)
peptide: CPWPARCTHQDLC
modifications: linker 1-7-13 via TBMB (inferred)
notes: on phage
B43: CNWPARCTHQDLC (peptide)
peptide: CNWPARCTHQDLC
modifications: linker 1-7-13 via TBMB (inferred)
notes: on phage
B44: CVWPARCTHQDLC (peptide)
peptide: CVWPARCTHQDLC
modifications: linker 1-7-13 via TBMB
notes: on phage
B45: CEWPARCLHTDLC (peptide)
peptide: CEWPARCLHTDLC
modifications: linker 1-7-13 via TBMB
notes: on phage
B46: CSWPARCTHADLC (peptide)
peptide: CSWPARCTHADLC
modifications: linker 1-7-13 via TBMB
notes: on phage
B47: CSWPARCIHQDLC (peptide)
peptide: CSWPARCIHQDLC
modifications: linker 1-7-13 via TBMB
notes: on phage
B48: CTWPARCLHQDLC (peptide)
peptide: CTWPARCLHQDLC
modifications: linker 1-7-13 via TBMB
notes: on phage
B49: CAWPARCLHQDWC (peptide)
peptide: CAWPARCLHQDWC
modifications: linker 1-7-13 via TBMB
notes: on phage
B50: CQWPARCMHQDMC (peptide)
peptide: CQWPARCMHQDMC
modifications: linker 1-7-13 via TBMB (inferred)
notes: on phage
B51: CSWPARCTHAEMC (peptide)
peptide: CSWPARCTHAEMC
modifications: linker 1-7-13 via TBMB
notes: on phage
B52: CDWPARCMHQEFC (peptide)
peptide: CDWPARCMHQEFC
modifications: linker 1-7-13 via TBMB
notes: on phage

Molecular target: T1, human plasma Kallikrein (human, UniProt P03952 20-638)
T1 construct: also called hPK; human PK
T1 sequence (P03952 20-638 limits assumed): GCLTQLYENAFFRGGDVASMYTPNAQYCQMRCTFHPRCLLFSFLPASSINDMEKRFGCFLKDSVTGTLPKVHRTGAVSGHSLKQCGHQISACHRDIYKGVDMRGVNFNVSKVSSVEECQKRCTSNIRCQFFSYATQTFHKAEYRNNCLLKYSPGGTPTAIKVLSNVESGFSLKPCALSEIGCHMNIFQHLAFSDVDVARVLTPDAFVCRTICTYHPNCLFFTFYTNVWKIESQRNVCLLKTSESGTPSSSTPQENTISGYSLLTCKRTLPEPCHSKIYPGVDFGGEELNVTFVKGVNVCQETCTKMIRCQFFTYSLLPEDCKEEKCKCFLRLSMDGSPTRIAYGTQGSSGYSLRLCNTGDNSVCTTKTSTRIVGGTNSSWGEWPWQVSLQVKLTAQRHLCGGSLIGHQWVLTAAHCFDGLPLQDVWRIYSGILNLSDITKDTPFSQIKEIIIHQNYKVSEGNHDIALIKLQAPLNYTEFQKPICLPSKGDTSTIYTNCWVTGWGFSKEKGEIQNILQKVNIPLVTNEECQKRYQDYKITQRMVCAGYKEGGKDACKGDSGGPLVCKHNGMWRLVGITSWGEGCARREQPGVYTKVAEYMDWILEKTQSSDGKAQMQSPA
Assay: phage binding assay
Experimental: Library transformant colonies, or selection output colonies, were picked and grown as individual cultures in 2TY broth containing selective antibiotic. The picked colonies were DNA-sequenced using a QIAgen PyroMark Q96 DNA sequencer to reveal the amino-acid substitution present in each clone, and were assayed for human plasma Kallikrein binding as follows. The phage-containing supernatant was harvested from the culture and phage were cyclised with tris bromomethyl benzene (TBMB) based on the methods of Heinis et al (Nature Chemical Biology vol. 5 pp 502-507 (2009)). The purified phage from this process were assayed for binding to biotinylated human plasma Kallikrein using a homogeneous plate-based binding assay; assay read-out measured on a BMG Labtech Pherastar FS plate reader. The quantitative binding data from duplicate assay samples was averaged (mean) and expressed as signal:background. […] The assay data was correlated with the peptide sequences.
Selections against human plasma Kallikrein were performed at a variety of stringencies (see Phage selections' in Methods above). All output sequences were identified and analysed for target binding (see ‘Randomisation of peptide domains—Assay of binding of individual clones’ in Methods above). Table 17 lists each unique sequence, its relative abundance in the selection output (frequency), and a rank number according to target binding strength.

Binder	RANK (Kallikrein binding)
B1	23
B2	5
B3	6
B4	29
B5	22
B6	15
B7	11
B8	37
B9	34

Molecular target: T1, human plasma Kallikrein
Assay: phage binding assay
Remark: another data set of the same source

Binder	BINDING ASSAY SIGNAL
B10	69
B11	69
B12	68
B13	61
B14	66
B15	61
B16	61
B17	59
B18	73
B19	79
B20	79
B21	73
B22	90
B23	92
B24	72
B25	110
B26	82
B27	71
B28	80
B29	71
B30	85
B31	74

Binder	BINDING ASSAY SIGNAL
B32	70
B33	69
B34	70
B35	59
B36	88
B37	59
B38	67
B39	58
B40	66
B41	74
B42	107
B43	116
B44	71
B45	60
B46	100
B47	68
B48	73
B49	63
B50	75
B51	59
B52	63
